Here are results for one molecule from patent EP3583122A1 (dated 2019).

Common to all, as to assay: cell-based or functional assay
Test [1] deals with T1, TAFV GP on VSV pseudotype particles (Tai Forest virus (TAFV), UniProt Q66810 33-676).
T1 sequence: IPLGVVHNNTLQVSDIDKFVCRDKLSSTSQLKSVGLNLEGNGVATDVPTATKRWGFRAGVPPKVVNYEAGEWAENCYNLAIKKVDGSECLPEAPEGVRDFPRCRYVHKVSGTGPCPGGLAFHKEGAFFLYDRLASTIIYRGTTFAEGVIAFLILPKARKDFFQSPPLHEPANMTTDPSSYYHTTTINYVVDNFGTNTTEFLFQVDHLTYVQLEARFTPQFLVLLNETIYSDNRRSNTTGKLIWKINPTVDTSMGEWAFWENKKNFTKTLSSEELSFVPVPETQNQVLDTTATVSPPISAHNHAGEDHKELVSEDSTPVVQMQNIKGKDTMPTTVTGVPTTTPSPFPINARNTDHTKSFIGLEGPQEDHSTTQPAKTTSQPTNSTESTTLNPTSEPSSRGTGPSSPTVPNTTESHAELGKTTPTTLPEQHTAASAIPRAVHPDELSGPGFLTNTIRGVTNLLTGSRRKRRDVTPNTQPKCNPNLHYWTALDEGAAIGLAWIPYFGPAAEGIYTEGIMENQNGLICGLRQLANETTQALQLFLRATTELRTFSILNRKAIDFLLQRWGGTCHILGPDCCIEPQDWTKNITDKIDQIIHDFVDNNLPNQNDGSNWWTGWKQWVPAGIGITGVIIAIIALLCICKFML

Test [2] has as its target T2, EBOV GP on rVSV particles (Ebola virus (EBOV), UniProt Q05320 33-676).
T2 sequence: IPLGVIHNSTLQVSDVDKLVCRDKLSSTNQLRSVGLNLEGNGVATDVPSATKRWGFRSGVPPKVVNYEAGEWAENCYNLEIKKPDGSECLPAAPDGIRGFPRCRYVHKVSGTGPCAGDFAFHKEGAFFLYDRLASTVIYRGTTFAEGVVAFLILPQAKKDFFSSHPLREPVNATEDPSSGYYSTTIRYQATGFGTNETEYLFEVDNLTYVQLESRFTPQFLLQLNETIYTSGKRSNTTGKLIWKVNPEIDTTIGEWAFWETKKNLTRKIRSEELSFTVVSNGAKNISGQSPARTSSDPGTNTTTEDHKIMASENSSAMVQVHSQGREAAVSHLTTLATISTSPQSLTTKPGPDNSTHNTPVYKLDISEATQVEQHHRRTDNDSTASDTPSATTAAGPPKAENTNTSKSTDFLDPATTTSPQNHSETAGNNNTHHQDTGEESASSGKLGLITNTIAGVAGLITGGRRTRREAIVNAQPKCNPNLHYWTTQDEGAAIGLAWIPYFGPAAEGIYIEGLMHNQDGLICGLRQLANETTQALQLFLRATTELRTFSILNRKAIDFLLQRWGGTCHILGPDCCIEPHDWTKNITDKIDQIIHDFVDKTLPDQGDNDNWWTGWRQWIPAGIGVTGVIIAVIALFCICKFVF

Test [3] has as its target T3, SUDV GP on rVSV particles (Sudan virus (SUDV), UniProt Q66814 33-676).
T3 sequence: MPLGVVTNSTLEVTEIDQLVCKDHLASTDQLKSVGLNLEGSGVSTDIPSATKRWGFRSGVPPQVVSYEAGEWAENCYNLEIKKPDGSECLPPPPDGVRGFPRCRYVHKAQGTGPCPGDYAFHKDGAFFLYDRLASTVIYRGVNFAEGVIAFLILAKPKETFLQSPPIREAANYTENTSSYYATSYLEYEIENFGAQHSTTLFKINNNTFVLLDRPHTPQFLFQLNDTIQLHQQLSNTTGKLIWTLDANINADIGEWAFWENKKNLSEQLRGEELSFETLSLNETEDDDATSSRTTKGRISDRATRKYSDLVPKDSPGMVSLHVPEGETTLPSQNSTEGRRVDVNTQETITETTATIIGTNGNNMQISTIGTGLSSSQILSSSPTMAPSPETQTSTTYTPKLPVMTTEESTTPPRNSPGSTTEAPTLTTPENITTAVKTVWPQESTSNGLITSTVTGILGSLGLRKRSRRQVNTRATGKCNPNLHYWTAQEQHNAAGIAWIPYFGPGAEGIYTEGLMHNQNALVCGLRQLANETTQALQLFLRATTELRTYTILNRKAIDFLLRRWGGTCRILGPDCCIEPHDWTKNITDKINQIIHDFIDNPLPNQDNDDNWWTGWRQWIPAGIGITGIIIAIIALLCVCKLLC

The target in test [4] is T4, RESTV GP on rVSV particles (Reston virus (RESTV), UniProt Q66799 34-677).
T4 sequence: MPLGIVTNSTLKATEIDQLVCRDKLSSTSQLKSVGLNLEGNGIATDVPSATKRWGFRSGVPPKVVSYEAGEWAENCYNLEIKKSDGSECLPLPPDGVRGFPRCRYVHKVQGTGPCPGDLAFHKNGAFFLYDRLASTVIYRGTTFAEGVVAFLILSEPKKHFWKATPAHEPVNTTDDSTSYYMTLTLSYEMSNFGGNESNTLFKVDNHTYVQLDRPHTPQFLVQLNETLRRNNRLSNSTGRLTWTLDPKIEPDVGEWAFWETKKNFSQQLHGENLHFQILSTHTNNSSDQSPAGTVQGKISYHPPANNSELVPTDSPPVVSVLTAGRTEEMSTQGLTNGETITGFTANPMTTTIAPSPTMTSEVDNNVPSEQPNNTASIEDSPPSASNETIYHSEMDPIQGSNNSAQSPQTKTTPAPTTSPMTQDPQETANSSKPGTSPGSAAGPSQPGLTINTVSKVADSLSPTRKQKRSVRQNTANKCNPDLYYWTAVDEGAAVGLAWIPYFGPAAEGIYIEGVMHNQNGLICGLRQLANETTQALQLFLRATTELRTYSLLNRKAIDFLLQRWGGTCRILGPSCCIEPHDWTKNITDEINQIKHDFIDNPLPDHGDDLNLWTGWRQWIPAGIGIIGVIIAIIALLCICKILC

The target of test [5] is BDBV GP on rVSV particles (Bundibugyo virus (BDBV)).

B1: mAb PE-87 (antibody, V domains shown)
VH: QVQLVQSGVTLVQPGGSLRVSCAASGFTFSSYAMSWVRQAPGKGLEWVSAISGLGGSTYYADSVKGRFTISRDNSKNTLYLQMNSLRAEDTAVYYCAKDHRVWAAGYHFDYWGQGALVTVSS
VL: DIVLTQSPSTLSASVGDRVTITCRASQSISSWLAWYQQKPGEAPKLLISDASSLESGVPSRFSGSGSGTEFTLTISSLQPDDFATYYCQQYYSSPTFGGGTKVEIK
In the case of B1, the “IC50, half-maximal neutralization of viral infectivity (rVSV-GP)” value is 0.9 nM in test [1]; 1 nM in test [2]; 0.8 nM in test [3]; 0.1 nM in test [4]; 0.4 nM in test [5].
